The text below walks through data of publication PMC4800795.

Assay [1] deals with T1, endogenous IRF3 of HEK293T cells (human (endogenous in HEK293T)), Q14653.
T1 chain: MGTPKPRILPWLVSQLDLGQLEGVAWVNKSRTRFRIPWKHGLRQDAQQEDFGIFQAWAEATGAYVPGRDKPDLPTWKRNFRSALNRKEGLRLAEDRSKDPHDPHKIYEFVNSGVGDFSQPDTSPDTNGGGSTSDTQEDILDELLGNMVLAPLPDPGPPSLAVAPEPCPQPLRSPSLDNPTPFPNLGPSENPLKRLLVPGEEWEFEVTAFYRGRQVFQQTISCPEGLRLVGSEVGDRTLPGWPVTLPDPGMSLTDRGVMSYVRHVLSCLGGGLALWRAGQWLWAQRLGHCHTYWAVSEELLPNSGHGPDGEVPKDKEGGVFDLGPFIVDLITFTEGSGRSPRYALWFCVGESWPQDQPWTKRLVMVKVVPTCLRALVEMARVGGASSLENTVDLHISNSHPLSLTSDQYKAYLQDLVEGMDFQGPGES
The assay is described as follows: native gel or EMSA; native PAGE (deoxycholate in the cathode buffer, on ice) of HEK293T lysates, Western blot; cells stimulated with poly(I·C) 10 μg/ml for 12 h, with or without Flag-FAF1. The note with it: remark: other sources report otherwise. On the technique in general: In EMSA bound probe runs differently from free probe, usually more slowly.

For assay [2], the target named is T2, GFP-tagged wild-type IRF3 (IRF3-WT-GFP), in HEK293T cells, Q14653.
T2 chain: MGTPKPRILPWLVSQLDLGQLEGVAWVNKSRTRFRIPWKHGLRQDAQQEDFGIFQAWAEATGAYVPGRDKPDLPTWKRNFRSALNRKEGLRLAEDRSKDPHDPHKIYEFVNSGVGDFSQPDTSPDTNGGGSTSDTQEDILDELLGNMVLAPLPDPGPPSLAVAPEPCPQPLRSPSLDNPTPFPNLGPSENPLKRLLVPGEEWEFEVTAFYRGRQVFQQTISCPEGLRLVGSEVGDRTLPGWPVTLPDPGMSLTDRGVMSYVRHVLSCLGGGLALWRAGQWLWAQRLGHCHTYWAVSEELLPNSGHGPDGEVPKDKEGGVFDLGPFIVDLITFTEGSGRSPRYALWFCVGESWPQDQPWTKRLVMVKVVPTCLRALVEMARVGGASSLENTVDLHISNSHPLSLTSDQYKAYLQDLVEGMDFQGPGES
The description is as above. The note with it: remark: other sources report otherwise.

By stoichiometry N is commonly meant the number of molecules, sites or subunits per partner or assembly.

B1: endogenous IRF3 of HEK293T cells, Q14653 1-427 (natural protein)
chain: MGTPKPRILPWLVSQLDLGQLEGVAWVNKSRTRFRIPWKHGLRQDAQQEDFGIFQAWAEATGAYVPGRDKPDLPTWKRNFRSALNRKEGLRLAEDRSKDPHDPHKIYEFVNSGVGDFSQPDTSPDTNGGGSTSDTQEDILDELLGNMVLAPLPDPGPPSLAVAPEPCPQPLRSPSLDNPTPFPNLGPSENPLKRLLVPGEEWEFEVTAFYRGRQVFQQTISCPEGLRLVGSEVGDRTLPGWPVTLPDPGMSLTDRGVMSYVRHVLSCLGGGLALWRAGQWLWAQRLGHCHTYWAVSEELLPNSGHGPDGEVPKDKEGGVFDLGPFIVDLITFTEGSGRSPRYALWFCVGESWPQDQPWTKRLVMVKVVPTCLRALVEMARVGGASSLENTVDLHISNSHPLSLTSDQYKAYLQDLVEGMDFQGPGES
Regarding B1, the stoichiometry N in assay [1] is 2.

B2: GFP-tagged wild-type IRF3 (IRF3-WT-GFP), in HEK293T cells, Q14653 1-427 (natural protein)
chain: MGTPKPRILPWLVSQLDLGQLEGVAWVNKSRTRFRIPWKHGLRQDAQQEDFGIFQAWAEATGAYVPGRDKPDLPTWKRNFRSALNRKEGLRLAEDRSKDPHDPHKIYEFVNSGVGDFSQPDTSPDTNGGGSTSDTQEDILDELLGNMVLAPLPDPGPPSLAVAPEPCPQPLRSPSLDNPTPFPNLGPSENPLKRLLVPGEEWEFEVTAFYRGRQVFQQTISCPEGLRLVGSEVGDRTLPGWPVTLPDPGMSLTDRGVMSYVRHVLSCLGGGLALWRAGQWLWAQRLGHCHTYWAVSEELLPNSGHGPDGEVPKDKEGGVFDLGPFIVDLITFTEGSGRSPRYALWFCVGESWPQDQPWTKRLVMVKVVPTCLRALVEMARVGGASSLENTVDLHISNSHPLSLTSDQYKAYLQDLVEGMDFQGPGES
Take B2: the stoichiometry N in assay [2] came to 2.
